The text below walks through data of US20260258115A1 (MAPP BIOPHARMACEUTICAL, published 2026).

Assay [1] addresses T1, RSV postfusion F (postF), subtype A (respiratory syncytial virus, subtype A, UniProt P03420 26-513).
T1 construct: also called F ΔFP; Postfusion subtype A
The experiment in a line: BLI, IgG.

In assay [2] the target is RSV prefusion F (preF), subtype A (respiratory syncytial virus, subtype A, UniProt P03420 26-513). As to the kind of experiment: BLI, IgG. A general note: Biolayer interferometry detects binding as a change in optical thickness at a sensor tip.
The target in assay [3] is RSV prefusion F (preF), subtype B (respiratory syncytial virus, subtype B). As to the kind of experiment: BLI, IgG.
Assay [4] deals with T2, RSV postfusion F (postF), subtype A (respiratory syncytial virus subtype A, UniProt P03420 26-513).
T2 construct: also called Postfusion subtype A; F deltaFP
The experiment in a line: BLI.

The target in assay [5] is T3, RSV prefusion F (preF), subtype B (respiratory syncytial virus subtype B).
T3 construct: also called Prefusion subtype B
As to the kind of experiment: BLI, IgG.

Where a chain is given by its changes, count along the chain named.

B1: ADI-14395 (antibody, V domains shown)
VH: EVQLVESGGGVVQPGRSLRLSCAASGFTFSSYAMHWVRQAPGKGLEWVAVISYDGSNKYYADSVKGRFTISRDNSKNTLYLQMNSLRAEDTAVYYCARDDTYYYDSSGYSAPFDYWGQGTLVTVSS
VL: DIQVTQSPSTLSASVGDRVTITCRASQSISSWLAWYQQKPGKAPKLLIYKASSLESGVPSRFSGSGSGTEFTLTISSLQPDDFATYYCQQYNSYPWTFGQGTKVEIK
notes: also called Ab 62
As usually defined, the Kd is the concentration at which binding is half-saturated. Lower therefore signals a tighter complex. As for B1, the binding result in assay [1] is listed as “no binding”. The molecule further came in with a Kd in assay [2] of 24.9 nM.

B2: ADI-14397 (antibody, V domains shown)
VH: B1 VH with S107N
VL: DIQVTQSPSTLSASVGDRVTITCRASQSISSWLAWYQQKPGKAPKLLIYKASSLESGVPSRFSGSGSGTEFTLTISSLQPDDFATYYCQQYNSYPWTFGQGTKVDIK
notes: also called Ab 64
Take B2: in assay [1], the binding result is “no binding”. The same molecule came in with a Kd in assay [2] of 28.5 nM.

B3: ADI-21031 (antibody, V domains shown)
VH: EVQLVESGPGLVKPSQTLSLTCTVSGGSISNSNYFWSWIRQPAGKGLEWIGRVHSSGTTSYNPSLKSRITISVDASESQFSLNLTSVTAADTAIYYCARDSSDWGLGWYFDLWGRGTLVTVSS
VL: ETTLTQSPATLSLSPGERATLSCRASQSVTFYLAWYQHKPGQAPRLLIFDASKRATGIPARFSGSGSGTDFTLTISSLEPEDFALYYCQQRSDWPQTFGQGTKVDIK
B3: the Kd in assay [3] was determined as 1.5 nM; in assay [2] it was 1.07 nM.

B4: ADI-14584 (antibody, V domains shown)
VH: QVQLVQSGAEVKKPGASVKVSCKASGFTFTNYGTSYGITWVRQAPGQGLEWMGWINTSNGNPNYAQKLQGRVTMTADTSTSTAYMELRSLISDDTAVYYCARGHRMVRGVVPTGYYGLDVWGQGTTVTVSS
VL: DIQLTQSPSSLSASVGDRVTITCRASQSISSYLNWYQQKPGKAPKLLIFAASNLQSGVPSRFSGSGSGTDFTLTISSLQPEDFATYYCQQSYITPWTFGQGTKVEIK
notes: also called Ab 113
With B4, the dissociation constant (Kd) in assay [3] is 0.476 nM. Also, the binding result in assay [1] is “no binding”.

B5: ADI-14571 (antibody, V domains shown)
VH: QVQLVQSGAEVKKPGSSVKVSCKASGGTFSTYTITWVRQAPGQGLEWMGRIVPIFGVVNNAQKFLGRLTITADKSTSTAYMELSSLRSEDTAVYYCARIPCSGNCQDYYYGMDVWGQGTTVTVSS
VL: DIQLTQSPSFLSASVGDRVTITCRASQGISSYLVWYQQKPGKAPKLLIYAASTLQSGVPSRFSGSGSGTEFTLTISSLQPEDFATYYCQQLNNYPPTFGPGTKVDIK
Regarding B5, the binding result in assay [1] was “no binding”. In addition, in assay [2], the Kd stood at 2.91 nM.

B6: ADI-21048 (antibody, V domains shown)
VH: EVQLVESGAEVKKPGASVKVSCKASGYTFSSHAISWVRQAPGHGLEWMGWISVFNGNTNYAQKFQGRVTMTTDTSTSTAYMELRSLRSDDAAVYYCAREVIGVGEFYFDYWGQGTLVTVSS
VL: QSVLTQPPSVSVAPGQTARITCGGNNIGSKSVHWYQQKAGQAPVLVVYDDSDRPSGIPERFLGSNSGNTATLTISRVEAGDEADYYCQVWDSSGDFHVFGTGTKVTVL
In the case of B6, in assay [2], binding was characterised by a dissociation constant (Kd) of 0.111 nM.

B7: ADI-14394 (antibody, V domains shown)
VH: EVQLLESGGGLVKPGGSLRLSCAASGFTFSSYSMNWVRQAPGKGLEWVSSISSSSSYIYYADSVKGRFTISRDNAKNSLYLQMNSLRAEDTAVYYCARGSEYYFDYWGQGTLVTVSS
VL: QSVLTQPPSVSGAPGQRVTISCTGSSSNIGAGYDVHWYQQLPGTAPKLLIYGNSNRPSGVPDRFSGSKSGTSASLAITGLQAEDEADYYCQSYDSSLSVVFGGGTKVTVL
notes: also called Ab 61
B7: the binding result in assay [1] is “no binding”. This molecule came in with a Kd in assay [2] of 11.5 nM.

B8: ADI-25577 (antibody, V domains shown)
VH: QVTLKESGGGLVKPGGSLRLSCAASGFTFSSYSMNWVRQAPGKGLEWVSSISSSSSYIYYADSVKGRFTISRDNAKNSLYLQMNSLRAEDTAVYYCARYSSSLGAFDIWGQGTMVTVSS
VL: B7 VL with V3A, V99D, G103T, V107L
notes: full-length IgG
Regarding B8, the binding result in assay [4] is given as “no binding”. In assay [5], this molecule had a Kd of 44.2 nM.

B9: ADI-14392 (antibody, V domains shown)
VH: EVQLLESGAEVKKPGSSVKVSCKASGGTFSSYGISWVRQAPGQGLEWMGGIIPIFGTSNYAQKFQGRVTITADESTSTAYMELSSLRSEDTAVYYCALDSSGRARYYAMDVWGQGTTVTVSS
VL: DIQVTQSPATLSLSPGERATLSCRASQSVSSYLAWYQQKPGQAPRLLIYDASNRATGIPARFSGSGSGTDFTLTISSLEPEDFAVYYCQQRNNWPPTFGPGTKVEIK
notes: full-length IgG; also called Ab 59
Regarding B9, the binding result in assay [4] is “no binding”. This molecule also registered a Kd in assay [5] of 72.5 nM.

B10: ADI-20994 (antibody, V domains shown)
VH: QVQLVQSGAEVKKPGASVKVSCKASGYTFSSNVIGWVRQAPGQGLEWMGWISTNNGNTKYGQKFQGRVTMTTDPSTSTAYMELRSLRSDDTAFYYCARESLGMGGFYFDYWGQGTLVTVSS
VL: QPVLTQPPSVSVAPGQTARITCGGDNIGSKSVHWYQQKPGQAPVLVVYDDSDRPSGIPERFSGSNSGNTASLTISRVEAGDEADYCCQVWDSGSDLWVFG
Consider B10, for which the Kd was 0.109 nM in assay [3] and 0.0894 nM in assay [2].

B11: ADI-14366 (antibody, V domains shown)
VH: QVQLVQSGTEVKKPGASVKVSCKASGYTFNMYGVSWVRQAPGQGLEWMGWISAYNGNTNYAQKFQGRVTMTIDTSTTTAYMELRSLRSDDTAMYYCARDFQAEEPLSNWFDPWGQGTLVTVSS
VL: DIVMTQTPSSLSASVGDRVIITCRASQSISRYINWYQKKPGKAPKFLIYAVSSLGSGVPSRFSGSGSGTDFTLTISSLQPEDFATYYCQQSYSTPFTFGPGTKVDIK
notes: full-length IgG; also called Ab 34
Take B11: the binding result in assay [4] is recorded as “no binding”. This molecule yielded a dissociation constant Kd in assay [5] of 18 nM.

B12: ADI-20965 (antibody, V domains shown)
VH: QVQLVQSGAEVKKPGASVKVSCKASGYNFTNYGISWVRQAPGQGLEWMGWISTSNGNTHYAQKSQGRITLTTDTSTNTAYMEVRSLRSDDTAVYYCAREGPESTYDWYHFDSWGQGTLVTVSS
VL: QSVVTQPPSVSVAPGQTAKITCGGNNIGSKTVHWYQLKAGQAPVLVVYDDSDRPSGIPERFSGSNSGNTATLTIRRVEAGDEADYFCQVWESASDHWVFGGGTKLTVL
Consider B12, for which the equilibrium dissociation constant (Kd) amounted to 0.533 nM in assay [3] and 0.121 nM in assay [2].

B13: ADI-14419 (antibody, V domains shown)
VH: EVQLVESGGGVVQPGGSLRLSCAASGFSFSDYGMHWVRQAPGKGLEWVSFIRYDASYKFYADSVKGRFTISRDNAKNTLYLQINSLRAEDTAVYYCAKEIYGSGSYYYYYYAIDVWGQGTTVTVSS
VL: EIVLTQSPGTLSLSPGERATLSCRASQSVSSSHLAWYQQKPGQAPRLLIYGASSRATGIPDRFSGSGSGTDFTLTISRLEPEDFAVYYCQQYFRSAWAFGQGTKVDIK
notes: also called Ab 85
As to B13, the binding result in assay [1] is reported as “no binding”. The molecule further had a Kd in assay [2] of 2.69 nM.

B14: ADI-21035 (antibody, V domains shown)
VH: EVQLVESGHEVKKPGASVKVSCKASGYTFPSYGISWVRQAPGQGLEWMGWIVPYNGNTKYAQRFQGRITMTTDSPTSTASMELRGLRSDDTAVYYCARVFGDGYSYGYEYWGQGTLVTVSS
VL: DIVLTQSPSTLSASVGDRVTITCRASQSISIWLAWYQQKPGKAPKLLIYKTSELVSGVPSRFSGSGSGTEFTLTISGLQPDDFATYYCQQGNSYSHTFGQGTKVEIK
For B14, in assay [2], the Kd was determined as 10.3 nM. This lies in the double-digit nanomolar range.

B15: ADI-21060 (antibody, V domains shown)
VH: EVQLVESGGGLVKPGGSLRLSCEASGFRLSDYYMTWIRQAPGKGLECISYISGGSTFKSYSDSVKGRFTISRDNTNLYLQMNSLRVEDTAVYYCARAPYLIYYMDVWGKGTTVTVSS
VL: QPVLTQPPSVSGAPGQRVSISCTGSNSNIGAGYDVHWYQQLPGTPPKLLIYDNNNRPSGVPDRFSGSKSGTSASLAITGLQAEDEADYYCQSYDNRLSGSQVLFGGGTKVTVL
On to B15, for which the Kd came to 0.349 nM in assay [3] and 0.426 nM in assay [2].

B16: ADI-14575 (antibody, V domains shown)
VH: QVQLVQSGAEVKKPGSSVKVSCKASGGTFSSYTISWVRQAPGQGLEWMGRIIPILGIANYAQKFQGRVTITADKSTSTAYMELSSLRSEDTAVYYCARPSSSSFAFDYWGQGTLVTVSS
VL: QSVLTQPASVSGSPGQSITISCTGTSSDVGGYNYVSWYQQHPGKAPKLMIYDVSNRPSGVSNRFSGSKSGNTASLTISGLQAEDEADYYCSSYTSSSTPVVFGGGTKVTVL
In the case of B16, the Kd in assay [2] amounted to 11.2 nM.

B17: ADI-21009 (antibody, V domains shown)
VH: QVQLVQSGAEMKTPGASVKVSCKASGYSFSNYGFTWVRQAPGQGLEWMGWISGYSAKTNYAQDLQGRVTMTIDTSTSTSYMELRSLRSDDTAVYYCARDPLGYFGSGTYRGGAFDFWGQGTTVTVSS
VL: QSALTQPASVSGSPGQSITLSCTGTNNDVGSYHLVSWYQQYPGKAPKLVIYEVTKRPSGVSNRFSGSKSGNTASLTISGLQPEDEADYYCCSYAGDRRIFGGGTKVTVL
notes: also called Ab 260
As for B17, the figures for the Kd in assay [3] and in assay [2] were 19.5 nM and 4.88 nM, respectively.

B18: ADI-25559 (antibody, V domains shown)
VH: EVQLLESGGGLVKPGGSLRLSCAASGFTFSSYSMNWVRQAPGKGLEWVSSISSSSSYIYYADSVKGRFTISRDNAKNSLYLQMNSLRAEDTAVYYCARDAAAKYYFDYWGQGTLVTVSS
VL: QPVLTQPPSVSGAPGQRVTISCTGSSSNIGAGYDVHWYQQLPGTAPKLLIYGNSNRPSGVPDRFSGSKSGTSASLAITGLQAEDEADYYCQSYDSSLSGKVFGTGTKLTVL
notes: full-length IgG
B18: in assay [4], the binding result is “no binding”. For the same molecule, the Kd in assay [5] is 33.3 nM.

B19: ADI-25565 (antibody, V domains shown)
VH: EVQLVESGGGLVKPGGSLRLSCAASGFTFSSYSMNWVRQAPGKGLEWVSSISSSSSYIYYADSVKGRFTISRDNAKNSLYLQMNSLRAEDTAVYYCARIRFDYGSGSYAFDIWGQGTMVTVSS
VL: B18 VL with K100S, T104G
notes: full-length IgG
Regarding B19, the binding result in assay [4] is “no binding”. In assay [5], this molecule showed a Kd of 35.7 nM.

B20: ADI-14579 (antibody, V domains shown)
VH: QVQLVQSGAEVKKPGESLKISCKVSGYSFTSYWIGWVRQMPGKGLEWMGIIYPGDSDTRYSPSFQGQVTISADKSITTAYLQWSSLKASDTAMYYCARPAHSSSWYGAFDLWGQGTTVTVSS
VL: DIQMTQSPSSLSASVGDRVTITCRASQGISNYLAWYQQKPGKVPKLLIYAASTLQSGVPSRFSGSGSGTDFTLTISSLQPEDVATYYCQKYNSAPLTFGGGTKVEIK
For the molecule B20, the Kd in assay [3] was found to be 3.73 nM; in assay [2], 7.54 nM.
